Measurements published in patent US9625458B2, “Biosensor” (priority 2002, dated 2017).

Test: Fluorescence emission spectra without and with saturating ligand (wavelength shift, ΔIstd, ΔRmax)
Set-up: key to ΔIstd: intensity change at λstd normalized to average intensity; key to ΔRmax: ratio change of two emission band areas, unbound vs saturated
Details: unbound vs ligand-saturated; for ΔIstd: standard intensity change; for ΔRmax: standard ratiometric change
Description: Fluorimetry. All measurements were conducted with an SLM Aminco-Bowman series 2 fluorimeter, with sample stirring at 25° C. Fluorescence emission spectra were acquired with excitation and emission slit widths of 4 and 8 nm, respectively. Photomultiplier tube potential was maintained between 400 and 800 volts. Protein concentrations were in the range of 50 to 1000 nM. Fluorophore-specific excitation was at the following approximate wavelengths: tryptophan, 290 nm; acrylodan, 390 nm; fluorescein, 485 nm; pyrene, 340 nm; NBD and NBDE, 490 nm; JPW4039, 485 nm; JPW4042, 470 nm; JPW4045, 470 nm.
Assessment of fluorescent biosensor function. Fluorescence emission spectra of bPBP-fluorophore conjugates were recorded in the absence and presence of saturating ligand concentrations. Spectral changes were characterized by four parameters: wavelength shift (the difference between the wavelengths of emission maximum in the unbound and ligand-saturated states), direction of intensity change (increase or decrease in intensity at the wavelengths of maximum emission in the two states), standard intensity change (ΔIstd), and standard ratiometric change (ΔR). ΔIstd is defined as the normalized intensity change relative to the average intensity, determined at the wavelength mid-point between the two emission maxima:
[formula] where λstd=(λmax, unbound+λmax, saturated)/2 and I1, I2 are the fluorescence intensities at λstd of each spectrum respectively (FIG. 4A). ΔR is defined in terms of two emission bands, A1 ([λ1, λ2]) and A2 ([λ3, λ4]) (FIG. 4B):
[formula] where ^∘A1, […] the areas in the absence of ligand, and ^∞A1, ^∞A2 the areas in the presence of saturating ligand. A computer program was used to enumerate ΔR for all possible pairs of wavelength bands in the two spectra, to identify the optimal sensing condition, defined as the maximum value of ΔR. Adjustable parameters of the algorithm, and their values used for ΔRmax quantities reported here, are: step size (2 nm), step width (10 nm), minimum integration area limit (fraction of total: 0.1), and maximum integration area limit (fraction of total: 1).

B1: phosphate BP A225C JPW4039 (conjugate, UniProt P0AG82 26-346, looked up, variant A225C)
Phosphate-binding protein PstS: EASLTGAGATFPAPVYAKWADTYQKETGNKVNYQGIGSSGGVKQIIANTVDFGASDAPLSDEKLAQEGLFQFPTVIGGVVLAVNIPGLKSGELVLDGKTLGDIYLGKIKKWDDEAIAKLNPGLKLPSQNIAVVRRADGSGTSFVFTSYLAKVNEEWKNNVGTGSTVKWPIGLGGKGNDGIAAFVQRLPGAIGYVEYAYAKQNNLAYTKLISADGKPVSPTEENFCNAAKGADWSKTFAQDLTNQKGEDAWPITSTTFILIHKDQKKPEQGTEVLKFFDWAYKTGAKQANDLDYASLPDSVVEQVRAAWKTNIKDSSGKPLY
modifications: JPW4039 label
- ΔIstd: 0.36
- ΔRmax: 2.86

B2: phosphate BP A225C NBD (conjugate, UniProt P0AG82 26-346, looked up, variant A225C)
Phosphate-binding protein PstS: EASLTGAGATFPAPVYAKWADTYQKETGNKVNYQGIGSSGGVKQIIANTVDFGASDAPLSDEKLAQEGLFQFPTVIGGVVLAVNIPGLKSGELVLDGKTLGDIYLGKIKKWDDEAIAKLNPGLKLPSQNIAVVRRADGSGTSFVFTSYLAKVNEEWKNNVGTGSTVKWPIGLGGKGNDGIAAFVQRLPGAIGYVEYAYAKQNNLAYTKLISADGKPVSPTEENFCNAAKGADWSKTFAQDLTNQKGEDAWPITSTTFILIHKDQKKPEQGTEVLKFFDWAYKTGAKQANDLDYASLPDSVVEQVRAAWKTNIKDSSGKPLY
modifications: NBD conjugate
- ΔIstd: 0.81
- ΔRmax: 1.21

B3: phosphate BP A225C Fluorescein (conjugate, UniProt P0AG82 26-346, looked up, variant A225C)
Phosphate-binding protein PstS: EASLTGAGATFPAPVYAKWADTYQKETGNKVNYQGIGSSGGVKQIIANTVDFGASDAPLSDEKLAQEGLFQFPTVIGGVVLAVNIPGLKSGELVLDGKTLGDIYLGKIKKWDDEAIAKLNPGLKLPSQNIAVVRRADGSGTSFVFTSYLAKVNEEWKNNVGTGSTVKWPIGLGGKGNDGIAAFVQRLPGAIGYVEYAYAKQNNLAYTKLISADGKPVSPTEENFCNAAKGADWSKTFAQDLTNQKGEDAWPITSTTFILIHKDQKKPEQGTEVLKFFDWAYKTGAKQANDLDYASLPDSVVEQVRAAWKTNIKDSSGKPLY
modifications: fluorescein label
- ΔIstd: 0.01
- ΔRmax: 0.97

B4: phosphate BP A225C Acrylodan (conjugate, UniProt P0AG82 26-346, looked up, variant A225C)
Phosphate-binding protein PstS: EASLTGAGATFPAPVYAKWADTYQKETGNKVNYQGIGSSGGVKQIIANTVDFGASDAPLSDEKLAQEGLFQFPTVIGGVVLAVNIPGLKSGELVLDGKTLGDIYLGKIKKWDDEAIAKLNPGLKLPSQNIAVVRRADGSGTSFVFTSYLAKVNEEWKNNVGTGSTVKWPIGLGGKGNDGIAAFVQRLPGAIGYVEYAYAKQNNLAYTKLISADGKPVSPTEENFCNAAKGADWSKTFAQDLTNQKGEDAWPITSTTFILIHKDQKKPEQGTEVLKFFDWAYKTGAKQANDLDYASLPDSVVEQVRAAWKTNIKDSSGKPLY
modifications: acrylodan conjugate
- ΔIstd: 0.08
- ΔRmax: 1.95

B5: phosphate BP N223C Fluorescein (conjugate, UniProt P0AG82 26-346, looked up, variant N223C)
Phosphate-binding protein PstS: EASLTGAGATFPAPVYAKWADTYQKETGNKVNYQGIGSSGGVKQIIANTVDFGASDAPLSDEKLAQEGLFQFPTVIGGVVLAVNIPGLKSGELVLDGKTLGDIYLGKIKKWDDEAIAKLNPGLKLPSQNIAVVRRADGSGTSFVFTSYLAKVNEEWKNNVGTGSTVKWPIGLGGKGNDGIAAFVQRLPGAIGYVEYAYAKQNNLAYTKLISADGKPVSPTEECFANAAKGADWSKTFAQDLTNQKGEDAWPITSTTFILIHKDQKKPEQGTEVLKFFDWAYKTGAKQANDLDYASLPDSVVEQVRAAWKTNIKDSSGKPLY
modifications: fluorescein conjugate
- ΔIstd: 0.06
- ΔRmax: 0.01

B6: phosphate BP N226C JPW4039 (conjugate, UniProt P0AG82 26-346, looked up, variant N226C)
Phosphate-binding protein PstS: EASLTGAGATFPAPVYAKWADTYQKETGNKVNYQGIGSSGGVKQIIANTVDFGASDAPLSDEKLAQEGLFQFPTVIGGVVLAVNIPGLKSGELVLDGKTLGDIYLGKIKKWDDEAIAKLNPGLKLPSQNIAVVRRADGSGTSFVFTSYLAKVNEEWKNNVGTGSTVKWPIGLGGKGNDGIAAFVQRLPGAIGYVEYAYAKQNNLAYTKLISADGKPVSPTEENFACAAKGADWSKTFAQDLTNQKGEDAWPITSTTFILIHKDQKKPEQGTEVLKFFDWAYKTGAKQANDLDYASLPDSVVEQVRAAWKTNIKDSSGKPLY
modifications: JPW4039 dye conjugate
- ΔIstd: 0.26
- ΔRmax: 2.94

B7: phosphate BP N226C JPW4042 (conjugate, UniProt P0AG82 26-346, looked up, variant N226C)
Phosphate-binding protein PstS: EASLTGAGATFPAPVYAKWADTYQKETGNKVNYQGIGSSGGVKQIIANTVDFGASDAPLSDEKLAQEGLFQFPTVIGGVVLAVNIPGLKSGELVLDGKTLGDIYLGKIKKWDDEAIAKLNPGLKLPSQNIAVVRRADGSGTSFVFTSYLAKVNEEWKNNVGTGSTVKWPIGLGGKGNDGIAAFVQRLPGAIGYVEYAYAKQNNLAYTKLISADGKPVSPTEENFACAAKGADWSKTFAQDLTNQKGEDAWPITSTTFILIHKDQKKPEQGTEVLKFFDWAYKTGAKQANDLDYASLPDSVVEQVRAAWKTNIKDSSGKPLY
modifications: JPW4042 dye conjugate
- ΔIstd: 0.29
- ΔRmax: 2.05

B8: phosphate BP S39C JPW4039 (conjugate, UniProt P0AG82 26-346, looked up, variant S39C)
Phosphate-binding protein PstS: EASLTGAGATFPAPVYAKWADTYQKETGNKVNYQGIGSCGGVKQIIANTVDFGASDAPLSDEKLAQEGLFQFPTVIGGVVLAVNIPGLKSGELVLDGKTLGDIYLGKIKKWDDEAIAKLNPGLKLPSQNIAVVRRADGSGTSFVFTSYLAKVNEEWKNNVGTGSTVKWPIGLGGKGNDGIAAFVQRLPGAIGYVEYAYAKQNNLAYTKLISADGKPVSPTEENFANAAKGADWSKTFAQDLTNQKGEDAWPITSTTFILIHKDQKKPEQGTEVLKFFDWAYKTGAKQANDLDYASLPDSVVEQVRAAWKTNIKDSSGKPLY
modifications: JPW4039 dye conjugate
- ΔIstd: 0.36
- ΔRmax: 3.15

B9: phosphate BP A225C JPW4042 (conjugate, UniProt P0AG82 26-346, looked up, variant A225C)
Phosphate-binding protein PstS: EASLTGAGATFPAPVYAKWADTYQKETGNKVNYQGIGSSGGVKQIIANTVDFGASDAPLSDEKLAQEGLFQFPTVIGGVVLAVNIPGLKSGELVLDGKTLGDIYLGKIKKWDDEAIAKLNPGLKLPSQNIAVVRRADGSGTSFVFTSYLAKVNEEWKNNVGTGSTVKWPIGLGGKGNDGIAAFVQRLPGAIGYVEYAYAKQNNLAYTKLISADGKPVSPTEENFCNAAKGADWSKTFAQDLTNQKGEDAWPITSTTFILIHKDQKKPEQGTEVLKFFDWAYKTGAKQANDLDYASLPDSVVEQVRAAWKTNIKDSSGKPLY
modifications: JPW4042 dye conjugate
- ΔIstd: 0.30
- ΔRmax: 1.32

B10: phosphate BP N226C JPW4045 (conjugate, UniProt P0AG82 26-346, looked up, variant N226C)
Phosphate-binding protein PstS: EASLTGAGATFPAPVYAKWADTYQKETGNKVNYQGIGSSGGVKQIIANTVDFGASDAPLSDEKLAQEGLFQFPTVIGGVVLAVNIPGLKSGELVLDGKTLGDIYLGKIKKWDDEAIAKLNPGLKLPSQNIAVVRRADGSGTSFVFTSYLAKVNEEWKNNVGTGSTVKWPIGLGGKGNDGIAAFVQRLPGAIGYVEYAYAKQNNLAYTKLISADGKPVSPTEENFACAAKGADWSKTFAQDLTNQKGEDAWPITSTTFILIHKDQKKPEQGTEVLKFFDWAYKTGAKQANDLDYASLPDSVVEQVRAAWKTNIKDSSGKPLY
modifications: JPW4045 dye conjugate
- ΔIstd: 0.53
- ΔRmax: 3.83

B11: phosphate BP A225C JPW4045 (conjugate, UniProt P0AG82 26-346, looked up, variant A225C)
Phosphate-binding protein PstS: EASLTGAGATFPAPVYAKWADTYQKETGNKVNYQGIGSSGGVKQIIANTVDFGASDAPLSDEKLAQEGLFQFPTVIGGVVLAVNIPGLKSGELVLDGKTLGDIYLGKIKKWDDEAIAKLNPGLKLPSQNIAVVRRADGSGTSFVFTSYLAKVNEEWKNNVGTGSTVKWPIGLGGKGNDGIAAFVQRLPGAIGYVEYAYAKQNNLAYTKLISADGKPVSPTEENFCNAAKGADWSKTFAQDLTNQKGEDAWPITSTTFILIHKDQKKPEQGTEVLKFFDWAYKTGAKQANDLDYASLPDSVVEQVRAAWKTNIKDSSGKPLY
modifications: JPW4045 label
- ΔIstd: 0.02
- ΔRmax: 0.82

B12: phosphate BP S39C JPW4042 (conjugate, UniProt P0AG82 26-346, looked up, variant S39C)
Phosphate-binding protein PstS: EASLTGAGATFPAPVYAKWADTYQKETGNKVNYQGIGSCGGVKQIIANTVDFGASDAPLSDEKLAQEGLFQFPTVIGGVVLAVNIPGLKSGELVLDGKTLGDIYLGKIKKWDDEAIAKLNPGLKLPSQNIAVVRRADGSGTSFVFTSYLAKVNEEWKNNVGTGSTVKWPIGLGGKGNDGIAAFVQRLPGAIGYVEYAYAKQNNLAYTKLISADGKPVSPTEENFANAAKGADWSKTFAQDLTNQKGEDAWPITSTTFILIHKDQKKPEQGTEVLKFFDWAYKTGAKQANDLDYASLPDSVVEQVRAAWKTNIKDSSGKPLY
modifications: JPW4042 dye label
- ΔIstd: 0.01
- ΔRmax: 0.15
